# Data reported in patent publication US20100248309A1.
# Target: elastase
# Assay: Given as 'coupling constant'. Second-order association with elastase, 8 nM each, residual elastase activity on succinyl-Ala-Ala-Ala-pNA at 410 nm over 1-10 min (Beatty et al.)
row,kon [M⁻¹ s⁻¹],Substance
1,1.7e+06,"Human blood plasma AT (alpha-1-antitrypsin, A9204, Sigma) (from UniProt P01009 25-418)"
2,1.7e+06,"Mutant recombinant AT F51L/M374I (human alpha-1-antitrypsin mutein, Korean Patent No. 133252) (from UniProt P01009 25-418)"
3,1.8e+06,Mutant recombinant AT K168C/F189C (with disulfide bond) (human alpha-1-antitrypsin mutein) (from UniProt P01009 25-418)
4,1.6e+06,wild type E. coli recombinant AT (human alpha-1-antitrypsin) (from UniProt P01009 26-418)
